Assay results: paper PMC5092059

Key:
[1] = molecular target: GFP-CaV2.2 (rabbit CaV2.2 with an N-terminal GFP) (rabbit) (UniProt Q05152)
[2] = molecular target: 3H-gabapentin; test: 3H-gabapentin radioligand saturation binding; settings: DRM fractions from transfected tsA-201 cells; n = 4

Chain of UniProt Q05152 (Q05152 whole entry): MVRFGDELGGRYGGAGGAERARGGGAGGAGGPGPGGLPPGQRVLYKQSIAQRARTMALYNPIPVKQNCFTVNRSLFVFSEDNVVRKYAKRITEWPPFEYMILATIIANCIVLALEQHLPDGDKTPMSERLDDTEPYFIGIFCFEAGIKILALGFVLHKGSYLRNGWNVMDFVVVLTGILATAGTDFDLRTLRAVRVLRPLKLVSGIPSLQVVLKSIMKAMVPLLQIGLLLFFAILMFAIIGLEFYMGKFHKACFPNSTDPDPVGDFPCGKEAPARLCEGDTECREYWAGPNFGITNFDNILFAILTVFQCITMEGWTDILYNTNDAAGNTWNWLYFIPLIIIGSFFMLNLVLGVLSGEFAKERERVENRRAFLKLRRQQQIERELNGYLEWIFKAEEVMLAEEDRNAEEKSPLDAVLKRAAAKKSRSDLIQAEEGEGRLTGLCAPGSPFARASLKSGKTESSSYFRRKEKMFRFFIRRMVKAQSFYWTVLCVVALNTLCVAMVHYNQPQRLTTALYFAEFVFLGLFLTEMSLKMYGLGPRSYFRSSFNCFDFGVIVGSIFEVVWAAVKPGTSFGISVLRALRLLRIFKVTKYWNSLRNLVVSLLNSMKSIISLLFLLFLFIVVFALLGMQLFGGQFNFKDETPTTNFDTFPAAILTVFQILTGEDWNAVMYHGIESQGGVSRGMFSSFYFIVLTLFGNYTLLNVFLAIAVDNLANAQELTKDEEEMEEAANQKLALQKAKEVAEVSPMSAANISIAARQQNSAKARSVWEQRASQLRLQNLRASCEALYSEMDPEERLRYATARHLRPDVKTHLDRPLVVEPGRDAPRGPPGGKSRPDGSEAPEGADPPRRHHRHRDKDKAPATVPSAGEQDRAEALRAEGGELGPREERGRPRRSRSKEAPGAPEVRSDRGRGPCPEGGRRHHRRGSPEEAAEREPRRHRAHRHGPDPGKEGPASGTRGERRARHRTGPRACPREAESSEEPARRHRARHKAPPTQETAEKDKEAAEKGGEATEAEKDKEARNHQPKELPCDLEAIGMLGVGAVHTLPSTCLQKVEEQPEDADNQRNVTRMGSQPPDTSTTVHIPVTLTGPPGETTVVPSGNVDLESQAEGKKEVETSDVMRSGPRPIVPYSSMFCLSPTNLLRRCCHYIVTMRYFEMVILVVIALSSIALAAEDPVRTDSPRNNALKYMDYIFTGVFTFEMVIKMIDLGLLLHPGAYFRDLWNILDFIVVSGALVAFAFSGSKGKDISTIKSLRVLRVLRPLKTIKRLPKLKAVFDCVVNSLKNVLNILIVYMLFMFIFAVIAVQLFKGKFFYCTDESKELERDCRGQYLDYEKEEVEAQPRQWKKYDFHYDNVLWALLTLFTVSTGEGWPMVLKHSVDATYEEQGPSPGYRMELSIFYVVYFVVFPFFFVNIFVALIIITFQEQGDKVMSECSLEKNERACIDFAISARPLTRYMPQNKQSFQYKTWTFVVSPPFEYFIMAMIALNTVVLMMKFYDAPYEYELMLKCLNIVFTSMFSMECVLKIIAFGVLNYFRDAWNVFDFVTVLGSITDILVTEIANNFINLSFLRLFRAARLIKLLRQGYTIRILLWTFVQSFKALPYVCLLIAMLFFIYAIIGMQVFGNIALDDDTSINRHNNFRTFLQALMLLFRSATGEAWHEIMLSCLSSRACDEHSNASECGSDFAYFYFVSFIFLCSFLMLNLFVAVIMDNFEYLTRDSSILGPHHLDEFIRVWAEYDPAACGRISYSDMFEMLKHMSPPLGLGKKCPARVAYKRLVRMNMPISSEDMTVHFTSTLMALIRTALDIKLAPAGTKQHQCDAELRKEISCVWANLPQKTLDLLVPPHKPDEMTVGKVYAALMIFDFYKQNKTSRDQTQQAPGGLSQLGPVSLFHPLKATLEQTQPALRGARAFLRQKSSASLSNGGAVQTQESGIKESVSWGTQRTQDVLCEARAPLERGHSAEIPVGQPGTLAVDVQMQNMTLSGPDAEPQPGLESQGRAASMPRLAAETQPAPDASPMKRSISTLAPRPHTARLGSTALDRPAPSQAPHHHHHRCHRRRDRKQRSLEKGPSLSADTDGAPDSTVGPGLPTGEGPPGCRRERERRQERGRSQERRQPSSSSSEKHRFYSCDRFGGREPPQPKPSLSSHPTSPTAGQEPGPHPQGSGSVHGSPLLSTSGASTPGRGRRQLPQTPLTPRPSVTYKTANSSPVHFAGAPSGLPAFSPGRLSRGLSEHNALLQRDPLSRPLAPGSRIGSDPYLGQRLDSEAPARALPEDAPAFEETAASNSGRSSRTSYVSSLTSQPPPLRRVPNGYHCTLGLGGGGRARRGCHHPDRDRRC

## α2(3C)δ-1 (rat α2δ-1 with the endogenous cleavage motif replaced by a Human Rhinovirus 3C-protease site) (natural protein)
[1]
  decrease in α2δ-1 immunostaining in hippocampal neurites after co-transfection with CaV2.2-HA/β1b, α2(3C)δ-1 relative to WT α2δ-1: 37%

## wild type α2δ-1 (rat) (from UniProt P54290) LEAVEM replaced by VVVVVV (hexavaline, V6)
[2]
  Kd: 68.3 nM
